# Where a chain is given by its changes, count along the chain named.
# T1: mouse PD-1 on transfected 293F cells (mouse, UniProt Q02242 25-288)
# T1 construct: whole, on cells; also called cell surface mouse PD-1
# T1 sequence (looked up): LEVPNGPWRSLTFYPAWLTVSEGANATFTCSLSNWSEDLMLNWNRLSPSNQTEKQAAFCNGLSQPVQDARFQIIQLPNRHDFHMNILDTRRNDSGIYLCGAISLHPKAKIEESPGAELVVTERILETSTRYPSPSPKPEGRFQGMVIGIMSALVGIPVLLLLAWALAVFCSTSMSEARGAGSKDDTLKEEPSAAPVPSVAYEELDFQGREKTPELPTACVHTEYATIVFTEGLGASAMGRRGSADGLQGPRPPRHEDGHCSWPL
# T2: mouse PD-1 antigen protein of the affinity-maturation screen (mouse, UniProt Q02242 25-167, limits assumed, biotinylated)
# T2 sequence (looked up): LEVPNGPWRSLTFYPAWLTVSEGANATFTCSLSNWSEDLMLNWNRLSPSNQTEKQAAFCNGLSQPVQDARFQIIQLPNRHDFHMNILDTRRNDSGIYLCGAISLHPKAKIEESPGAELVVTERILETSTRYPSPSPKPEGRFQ
# T3: mPD-1.His (mouse, UniProt Q02242 25-167, limits assumed)
# T3 construct: Soluble analyte, probably the extracellular domain; also called mouse PD-1 (SPR analyte)
# T3 sequence (looked up): T2 sequence (looked up)
# T4: mouse PD-1 (Sino Biological), coated on plates (mouse, UniProt Q02242 25-167)
# T4 sequence (looked up): T2 sequence (looked up)
# B1: 2C2 (antibody, human IgG4, V domains shown)
# VH: QVQLVQSGAEVKKPGSSVKVSCKASGFTFTTYYISWVRQAPGQGLEYLGYINMGSGGTNYNEKFKGRVTITADKSTSTAYMELSSLRSEDTAVYYCAIIGYFDYWGQGTMVTVSS
# VL: DVVMTQSPLSLPVTLGQPASISCRSSQSLLDSDGATYLYWFQQRPGQSPRRLIYLVSTLGSGVPDRFSGSGSGTDFTLKISRVEAEDVGVYYCMQLTHWPYTFGQGTKLEIK
# B2: 2G4 (antibody, human IgG4, V domains shown)
# VH: B1 VH
# VL: B1 VL with A35S
# Legend:
# [1] = biological target: T1, mouse PD-1 on transfected 293F cells; assay: FACS, mouse PD-1 transfected 293F cells
# [2] = biological target: T5, human PD-1 on transfected cells (human, UniProt Q15116 25-288); assay: FACS competition on CHO-S cells expressing human PD-1 against biotinylated WBP305BMK1 at 1 µg/ml
# T5 construct: also called CHO-S cells expressing human PD-1; human PD-1 transfected CHO-S cells
# Description: (§1) The cells were washed and the second antibody Streptavidin-PE were added and incubated for 30 min at 4° C. The cells were then washed once and resuspended in 1×PBS/1% BSA, and analyzed by flow cytometery (BD).
# [3] = biological target: T5, human PD-1 on transfected cells; assay: FACS, human PD-1 transfected CHO-S cells
# [4] = biological target: T6, human PD-1 (Sino Biological), coated on plates (human, UniProt Q15116 25-167); assay: ELISA, plates coated with human PD-1 at 1 µg/ml
# T6 construct: whole entry named
# Description: (§2) For ELISA, plates (Nunc) were coated with human, cynomolgus or mouse PD-1 (Sino Biological) at 1 μg/ml overnight at 4° C. After blocking and washing, antibodies were serially diluted in blocking buffer and added to the plates and incubated at room temperature for 1 h. The plates were then washed and subsequently incubated with secondary antibody goat anti human IgG HRP (Bethyl) for 1 h. After washing, TMB substrate was added and the reaction was stopped by 2 M HCl. The absorbance at 450 nm was read using a microplate reader (Molecular Device).
# [5] = biological target: T5, human PD-1 on transfected cells; assay: FACS blocking assay: mouse Fc fusion-human PD-L1 binding to human PD-1 transfected CHO-S cells
# [6] = biological target: T2, mouse PD-1 antigen protein of the …; assay: capture ELISA, second-round affinity-maturation screen (scFv format likely); unit not given
# [7] = biological target: cynomolgus PD-1 antigen protein of the affinity-maturation screen (cynomolgus); assay: as above
# [8] = biological target: human PD-1 antigen protein of the affinity-maturation screen (human, UniProt Q15116 25-167, limits assumed, biotinylated); assay: as above
# [9] = biological target: T1, mouse PD-1 on transfected 293F cells; assay: FACS blocking assay: mouse Fc fusion-mouse PD-L1 binding to mouse PD-1 transfected 293F cells
# hPD-1.His = biological target: T7, hPD-1.His (human, UniProt Q15116 25-170); assay: SPR (ProteOn XPR36), antibody captured on Protein A, PD-1.His as analyte, 1:1 fit
# T7 construct: the SPR text says only human PD-1; also called human PD-1 (SPR analyte)
# Description: (§3) Antibodies were characterized for affinity and binding kinetics to PD-1 by SPR assay using ProteOn XPR36 (Bio-Rad). Protein A protein (Sigma) was immobilized to a GLM sensor chip (Bio-Rad) through amine coupling. Purified antibodies were flowed over the sensor chip and captured by the Protein A. The chip was rotated […] and washed with running buffer (1×PBS/0.01% Tween20, Bio-Rad) until the baseline was stable. Seven concentrations of human PD-1 and running buffer were flowed through the sensor chip at a flow rate of 30 μL/min for an association phase of 180 s, followed by 300s dissociation. After regeneration, seven concentration of mouse PD-1 and running buffer were flowed through the sensor chip at a flow rate of 30 μL/min for an association phase of 180 s, followed by 300 s dissociation. The chip was regenerated with pH 1.5 H₃PO₄ after each run. The association and dissociation curve was fit by 1:1 Langmuir binding model using ProteOn software.
# mPD-1.His = biological target: T3, mPD-1.His; assay: as above
# Description: as §3
# [10] = biological target: T5, human PD-1 on transfected cells; assay: flow cytometry on CHO-S cells expressing human PD-1, quantitative beads
# Description: (§4) Testing antibodies were 1:2 serially diluted in wash buffer (1×PBS/1% BSA) and incubated with cells at 4° C. for 1 h.
# [11] = biological target: T8, human CTLA-4 on a constructed cell line (human, UniProt P16410 36-223); assay: FACS, CTLA-4.293F cells, one antibody concentration (not given)
# T8 construct: whole, on cells
# Description: (§5) Constructed cell lines that respectively express human PD-1, CD28, CTLA-4 or ICOS were transferred in to 96-well U-bottom plates (BD) at a density of 2×10⁵ cells/well. Testing antibodies were diluted in wash buffer (1×PBS/1% BSA) and incubated with cells at 4° C. for 1 h. After washing, the secondary antibody goat anti-human IgG Fc FITC (Jackson ImmunoResearch Lab) was added and incubated at 4° C. in the dark for 1 h. The cells were then washed once and resuspended in 1×PBS/1% BSA, and analyzed by flow cytometery (BD) and FlowJo software.
# [12] = biological target: T9, human CD28 on a constructed cell line (human, UniProt P10747 19-220); assay: FACS, CD28.CHO-K1 cells, one antibody concentration (not given)
# T9 construct: whole, on cells
# Description: as §5
# [13] = biological target: T4, mouse PD-1 (Sino Biological), coated on …; assay: ELISA, plates coated with mouse PD-1 at 1 µg/ml
# Description: as §2
# [14] = biological target: T1, mouse PD-1 on transfected 293F cells; assay: flow cytometry on 293F cells expressing mouse PD-1, quantitative beads
# Description: as §4
# [15] = biological target: cynomolgus PD-1 (Sino Biological), coated on plates (cynomolgus, UniProt B0LAJ3 25-170); assay: ELISA, plates coated with cynomolgus PD-1 at 1 µg/ml
# Description: as §2
# [16] = biological target: T5, human PD-1 on transfected cells; assay: FACS competition on CHO-S cells expressing human PD-1 against biotinylated Keytruda at 1 µg/ml
# Description: as §1
# T7 sequence (Q15116 25-170): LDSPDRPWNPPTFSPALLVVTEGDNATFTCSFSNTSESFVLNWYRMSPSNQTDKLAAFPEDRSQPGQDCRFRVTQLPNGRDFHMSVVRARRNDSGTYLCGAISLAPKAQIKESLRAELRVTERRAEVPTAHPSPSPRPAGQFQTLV
# T5 sequence (Q15116 25-288 limits assumed): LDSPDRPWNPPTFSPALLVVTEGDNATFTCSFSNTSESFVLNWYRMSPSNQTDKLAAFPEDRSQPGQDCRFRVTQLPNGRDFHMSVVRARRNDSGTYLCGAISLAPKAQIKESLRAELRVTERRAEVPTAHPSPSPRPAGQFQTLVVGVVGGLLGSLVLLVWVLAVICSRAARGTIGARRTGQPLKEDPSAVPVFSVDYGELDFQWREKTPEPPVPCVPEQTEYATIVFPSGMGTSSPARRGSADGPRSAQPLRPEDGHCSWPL
# Sequence of cynomolgus PD-1 (Sino Biological), coated on plates (B0LAJ3 entry or part of it limits assumed): as the sequence (Q15116 25-170) above, with D2E, P10A, V19L, T35A, Q75R, T144A counted along it
# T6 sequence (Q15116 25-167 limits assumed): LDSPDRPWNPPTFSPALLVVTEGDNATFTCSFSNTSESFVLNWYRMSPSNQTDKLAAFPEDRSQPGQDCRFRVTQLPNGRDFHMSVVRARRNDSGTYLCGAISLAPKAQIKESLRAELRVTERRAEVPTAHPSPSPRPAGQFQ
# Sequence of human PD-1 antigen protein of the affinity-maturation screen (Q15116 25-167 limits assumed): as above
# T8 sequence (P16410 36-223): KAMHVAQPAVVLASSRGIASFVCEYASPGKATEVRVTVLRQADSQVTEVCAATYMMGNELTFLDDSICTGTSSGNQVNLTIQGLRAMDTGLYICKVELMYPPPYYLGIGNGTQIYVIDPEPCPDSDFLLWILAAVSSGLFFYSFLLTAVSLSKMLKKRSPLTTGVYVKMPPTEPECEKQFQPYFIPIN
Binder,EC50 [1] [nM],IC50 [2] [nM],EC50 [3] [nM],EC50 [4] [nM],IC50 [5] [nM],Bmax [6],Bmax [7],Bmax [8],IC50 [9] [nM],Kd (hPD-1.His) [nM],koff (hPD-1.His) [s⁻¹],kon (hPD-1.His) [M⁻¹ s⁻¹],Kd (mPD-1.His) [nM],koff (mPD-1.His) [s⁻¹],kon (mPD-1.His) [M⁻¹ s⁻¹],Kd [10] [nM],binding result [11],binding result [12],EC50 [13] [nM],Kd [14] [nM],also measured
B1,11.8,6.55,2.36,0.12,2.2,0.416,1.67,3.17,16.7,5.64,0.00414,733000,6.92,0.00153,221000,0.264,no binding,no binding,0.41,17.4,EC50 [15]: 0.12 nM; IC50 [16]: 11.1 nM
B2,14.8,8.93,2.78,0.21,2.23,0.479,1.72,3.37,18.7,7.09,0.0047,663000,3.89,0.0013,334000,0.38,no binding,no binding,0.2,35.1,EC50 [15]: 0.36 nM; IC50 [16]: 17.2 nM

# Reference: patent US20230014722A1 (CSTONE PHARMACEUTICALS, published 2023)
